Assay results published in article PMC12802541.

Key:
[1] = biological target: Rabbit skeletal actin (rabbit) (UniProt P68135); assay: TIRF microscopy; 50 nM phosphorylated NM2 filaments added to anti-parallel actin arrays anchored by their barbed ends on patterned formin; MB150 (150 mM KCl, 5 mM MgCl2, 0.1 mM EGTA, 20 mM MOPS, pH 7.4), 1 mM ATP, 1 mM DTT, 0.6% methylcellulose, 30 °C
[2] = biological target: Rabbit skeletal actin (rabbit) (UniProt P68135)

Row | dwell time (lifetime of attachment) [1] [min] | fraction of tension sensor modules that are tensed (amplitude of the long lifetime component, global fit of FLIM) on patterned actin bundles [2] [%] | Substance
1 | > 15 | – | Non-muscle myosin 2B, Halo-tagged, phosphorylated, pre-polymerized filaments (from UniProt P35580 1-1976; P60660 1-151; O14950 1-172) (complex)
2 | – | 80 | TsMod NM2A (non-muscle myosin 2A with an embedded FRET-based tension sensor module), RLC phosphorylated (from UniProt P35579 1-1960; P60660 1-151; O14950 1-172) (complex)
